Reference: the RNAGym collection of RNA variant scans (doi:10.7554/elife.80360)

B1: CPEB3 Ribozyme (parent)
chain: GGGGGCCACAGCAGAAGCGUUCACGUCGCGGCCCCUGUCAGAUUCUGGUGAAUCUGCGAAUUCUGCUGU

Variants of: B1
Test: self-cleavage, relative activity (ratio to wild type); higher = more cleavage; co-transcriptional
In the case of G11C U36A, the self-cleavage is reported as 0.0623.
For G11C G48C, the self-cleavage was 0.963.
For G11C G48A, the self-cleavage was 0.921.
G11A A15U showed a self-cleavage of 0.574.
In the case of G11A A15G, the self-cleavage is reported as 0.807.
In the case of G11C A40U, the self-cleavage is reported as 0.26.
With G11C A40G the self-cleavage was 0.643.
For G11C A40C, the self-cleavage was 0.179.
For G11C U20C, the self-cleavage was 0.158.
For G11C U20A, the self-cleavage was 0.115.
G11C C39G gave a self-cleavage of 0.408.
For G11C C39A, the self-cleavage was 0.257.
For G11C U64A, the self-cleavage was 0.385.
G11C U64C gave a self-cleavage of 0.424.
With A10U U53G the self-cleavage was 0.902.
Work on A10U U53A yielded a self-cleavage of 0.981.
A10U U62G showed a self-cleavage of 0.896.
With G11U C32U the self-cleavage was 0.854.
Variant G11U C32G has a self-cleavage of 0.295.
With G11C G47U the self-cleavage was 0.916.
Work on G11C G47C yielded a self-cleavage of 0.896.
Work on G11C G47A yielded a self-cleavage of 0.907.
For G11C G28U, the self-cleavage was 0.137.
For G11C G28A, the self-cleavage was 0.0877.
Variant G11C G28C has a self-cleavage of 0.137.
G11C C35G showed a self-cleavage of 0.209.
With G11C A60G the self-cleavage was 0.434.
In the case of G11C A60U, the self-cleavage is reported as 0.243.
Variant G11U A16C has a self-cleavage of 0.101.
G11U A16U showed a self-cleavage of 0.48.
Work on G11C U62C yielded a self-cleavage of 0.402.
In the case of G11C U62A, the self-cleavage is reported as 0.409.
G11C U62G gave a self-cleavage of 0.251.
In the case of A10U U49G, the self-cleavage is reported as 1.01.
A10U U49C gave a self-cleavage of 1.
In the case of A10U U49A, the self-cleavage is reported as 0.989.
In the case of G11A U38G, the self-cleavage is reported as 0.142.
Work on G11A U38A yielded a self-cleavage of 0.684.
In the case of G11A U38C, the self-cleavage is reported as 0.733.
Variant G11A A59U has a self-cleavage of 0.41.
Variant G11C C18U has a self-cleavage of 0.246.
For G11C C18A, the self-cleavage was 0.0969.
Variant G11A C34U has a self-cleavage of 0.93.
G11U G56U gave a self-cleavage of 0.404.
Work on G11U G56A yielded a self-cleavage of 0.701.
G11U G56C showed a self-cleavage of 0.367.
G11C U55C gave a self-cleavage of 0.243.
G11U A59G gave a self-cleavage of 0.901.
Variant G11U G48C has a self-cleavage of 0.878.
In the case of G11C C57G, the self-cleavage is reported as 0.284.
Work on G11C C57U yielded a self-cleavage of 0.238.
With G11U C22A the self-cleavage was 0.129.
For G11U C22U, the self-cleavage was 0.179.
In the case of G11U C22G, the self-cleavage is reported as 0.112.
In the case of G11C G19C, the self-cleavage is reported as 0.145.
For G11A U55G, the self-cleavage was 0.317.
In the case of G11A U55A, the self-cleavage is reported as 0.348.
With G11U G28C the self-cleavage was 0.116.
Variant G11U G28U has a self-cleavage of 0.192.
Work on G11U G41U yielded a self-cleavage of 0.359.
In the case of G11U G41A, the self-cleavage is reported as 0.217.
G11A A52U showed a self-cleavage of 0.837.
G11A A52C showed a self-cleavage of 0.865.
G11C C33G showed a self-cleavage of 0.507.
Work on G11C C27A yielded a self-cleavage of 0.177.
With G11C C27U the self-cleavage was 0.0897.
In the case of G11C U38A, the self-cleavage is reported as 0.729.
G11C U38G gave a self-cleavage of 0.113.
Variant G11C A52U has a self-cleavage of 0.628.
For G11C A52G, the self-cleavage was 0.838.
G11C A52C gave a self-cleavage of 0.551.
Variant G11C G31A has a self-cleavage of 0.693.
G11C C24A gave a self-cleavage of 0.321.
Work on G11C C24U yielded a self-cleavage of 0.334.
With G11C A15U the self-cleavage was 0.188.
With G11C A15C the self-cleavage was 0.497.
With G11U G50C the self-cleavage was 0.797.
With G11U G50U the self-cleavage was 0.916.
For G11C G56U, the self-cleavage was 0.359.
G11C G56A showed a self-cleavage of 0.564.
G11A A51G gave a self-cleavage of 0.865.
G11A A51U gave a self-cleavage of 0.847.
With G11A U69G the self-cleavage was 1.01.
With G11A U69A the self-cleavage was 0.973.
For G11A G41C, the self-cleavage was 0.278.
Variant G11A G41A has a self-cleavage of 0.276.
G11A G41U showed a self-cleavage of 0.342.
G11A G68U gave a self-cleavage of 0.915.
G11A G68A showed a self-cleavage of 0.956.
G11A G68C gave a self-cleavage of 0.947.
G11A U62C gave a self-cleavage of 0.391.
Work on G11A U62A yielded a self-cleavage of 0.537.
G11C C63G showed a self-cleavage of 0.299.
G11C C63A gave a self-cleavage of 0.275.
For G11U C57U, the self-cleavage was 0.215.
For G11U C57G, the self-cleavage was 0.204.
With G11U C57A the self-cleavage was 0.31.
Variant G11U C34U has a self-cleavage of 0.915.
In the case of G11U C34G, the self-cleavage is reported as 0.635.
Work on G11C G50A yielded a self-cleavage of 0.826.
For G11C G50U, the self-cleavage was 0.867.
Variant G11U C12A has a self-cleavage of 0.549.
G11U C12U showed a self-cleavage of 0.44.
In the case of G11U C12G, the self-cleavage is reported as 0.577.
In the case of G11C A23U, the self-cleavage is reported as 0.798.
For G11C G68A, the self-cleavage was 0.907.
Work on G11C G68C yielded a self-cleavage of 0.823.
G11C C22A showed a self-cleavage of 0.177.
G11C C22U showed a self-cleavage of 0.143.
Variant G11A C29G has a self-cleavage of 0.148.
With G11A C29A the self-cleavage was 0.26.
Work on G11A C29U yielded a self-cleavage of 0.0741.
Work on G11U A15U yielded a self-cleavage of 0.295.
G11U gave a self-cleavage of 0.905.
Variant G11C has a self-cleavage of 0.872.
For G11A, the self-cleavage was 0.932.
Variant G11A U64G has a self-cleavage of 0.661.
G11A U64C showed a self-cleavage of 0.513.
With G11A U64A the self-cleavage was 0.655.
Work on G11U A51U yielded a self-cleavage of 0.785.
Work on G11U A51G yielded a self-cleavage of 0.921.
Work on G11A U53C yielded a self-cleavage of 0.352.
Variant G11A U53G has a self-cleavage of 0.622.
Work on G11A U46G yielded a self-cleavage of 0.93.
With G11A U46A the self-cleavage was 0.932.
Variant G11A U46C has a self-cleavage of 0.91.
Work on G11A G58A yielded a self-cleavage of 0.842.
Variant G11A G58C has a self-cleavage of 0.876.
G11A G58U gave a self-cleavage of 0.905.
Work on G11A U20G yielded a self-cleavage of 0.154.
G11A U20C gave a self-cleavage of 0.213.
G11U G30A gave a self-cleavage of 0.589.
For G11U G30C, the self-cleavage was 0.455.
With G11C A42U the self-cleavage was 0.41.
G11C A42G showed a self-cleavage of 0.51.
In the case of G11C A16G, the self-cleavage is reported as 0.471.
For G11A G19C, the self-cleavage was 0.133.
G11A G19U gave a self-cleavage of 0.088.
Variant G11A G48U has a self-cleavage of 0.885.
G11A G48C showed a self-cleavage of 0.951.
In the case of G11C U49A, the self-cleavage is reported as 0.882.
Work on G11U A52G yielded a self-cleavage of 0.901.
Variant G11U C63U has a self-cleavage of 0.498.
With G11U C63G the self-cleavage was 0.231.
In the case of A10U U67C, the self-cleavage is reported as 1.
For G11A C24G, the self-cleavage was 0.16.
G11A C24A showed a self-cleavage of 0.345.
G11A C24U gave a self-cleavage of 0.259.
For G11C U43A, the self-cleavage was 0.357.
For G11C U43C, the self-cleavage was 0.571.
Variant G11C C45U has a self-cleavage of 0.804.
Work on G11C C45A yielded a self-cleavage of 0.757.
For G11C G65C, the self-cleavage was 0.409.
G11C G65U showed a self-cleavage of 0.53.
G11U G14U gave a self-cleavage of 0.144.
G11U G14C showed a self-cleavage of 0.161.
G11C C29G showed a self-cleavage of 0.139.
With G11C C29A the self-cleavage was 0.181.
G11C C29U showed a self-cleavage of 0.12.
With G11A G31U the self-cleavage was 0.599.
G11A G31C gave a self-cleavage of 0.155.
A10U U64C showed a self-cleavage of 0.778.
With G11U C35U the self-cleavage was 0.815.
With G11U C35G the self-cleavage was 0.341.
G11C U46G gave a self-cleavage of 0.849.
Variant G11C U46A has a self-cleavage of 0.866.
In the case of G11C U46C, the self-cleavage is reported as 0.787.
